Experimental data published in publication PMC3744643.

Legend:
Settings in all cases: 10 mM Tris-HCl pH 7.5, 50 mM NaCl, 1 mM MgCl2, 0.5 mM EDTA, 0.5 mM DTT, 0.05 mg/ml poly(dI-dC), room temperature, 30 min; footprinting: same buffer, then …
[1] = biological target: T1, His-OpaR (Vibrio parahaemolyticus RIMD 2210633) (UniProt Q79YV4); assay: DNase I footprinting
T1 sequence: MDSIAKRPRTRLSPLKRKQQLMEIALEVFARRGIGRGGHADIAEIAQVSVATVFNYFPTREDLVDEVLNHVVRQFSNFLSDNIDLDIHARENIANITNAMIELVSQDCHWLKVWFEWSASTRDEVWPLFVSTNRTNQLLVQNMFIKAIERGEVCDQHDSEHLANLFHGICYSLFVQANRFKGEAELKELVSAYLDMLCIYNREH

[2] = system: T2, His-AphA (Vibrio parahaemolyticus RIMD 2210633), ORF:4cf93ac0; assay: DNase I footprinting
T2 sequence: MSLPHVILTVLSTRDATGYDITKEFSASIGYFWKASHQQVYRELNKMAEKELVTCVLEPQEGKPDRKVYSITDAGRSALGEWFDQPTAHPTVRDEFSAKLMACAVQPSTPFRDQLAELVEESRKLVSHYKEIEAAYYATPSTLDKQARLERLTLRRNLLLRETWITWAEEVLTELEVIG

[3] = biological target: T1, His-OpaR (Vibrio parahaemolyticus RIMD 2210633); assay: EMSA
[4] = system: T2, His-AphA (Vibrio parahaemolyticus RIMD 2210633), ORF:4cf93ac0; assay: EMSA

For “AGCGGAGTCTTGTTTATTAACGTTTTTAGCGGGTTCAATTGCATTTTCTCTTTTTTGAGTCTTTACAATTTTTGTTTTATCTCCGCTATCGCTGCTATTTATAGATTTGTCTTTATTTTTTTCTTCCATCACAAGGACTCCATATAAATGATGGGGTTAATATATATATTCCTGCTAAATGAAAAATACTTCGGTTAGATTTTCTCG (double strand) [VPA1043 promoter probe (EMSA and footprinting)]”, the binding [1] was “binds”, the binding [2] was “no binding” and the binding [3] was “binds”. For the same sequence, the binding [4] was “no binding”.

In the case of “GAGTTGCTTCATAATAACTATTATTAGTTATAAATATCGCTTAATTTAAATCTAATTTAAAGATATAAAGGAGCGTATTTAAAATGAAGTTTTTGATACATCAATCATTAATTATCATTATTCAGATAATTTAATTAATACGAAATATGTCAATTAATAATGCTCTAGGAGATTAGCATGCAGTCTAATACGTATCTTAAATACGCAGATATTAAAGGTGAAGCGACAGCGGAAC (double strand) [VPA1027 (hcp2) promoter footprinting probe]”, the binding [1] is reported as “binds” and the binding [2] is reported as “no binding”.

For “TTGTGGAAACTCGTTATGGTCAATACCAATTTCATGAAAAACCTCGCCAAAGACCTGCTAAATATTTATATATCGATTTTTATAATTAGATTTGAAGCTTTAATTATTAACATTAAGATTAATAGAGTTCTTATAGCTGTTATAAAAACTATTGACGGCATAATGAATCATTTTTTTATCAAAGCAATCATGAATTGTTGAACAATTTTAAATATCCAACCAGGTTCAAATTTTTGACACTCAAACTTTCACCCGTCAA (double strand) [VPA1044 promoter probe (EMSA and footprinting)]”, the binding [1] was “binds”, the binding [2] was “no binding” and the binding [3] was “binds”. The binding [4] was “no binding”.
